As a reminder, the IC50 is the midpoint of a concentration-inhibition curve. A low value points to higher potency.

The labels stand for the following.
B1: PD1-28 scFv (scFv, V domains shown)
VH: EVQLVQSGAEVKKPGASVKVSCKASGYRFTSYGISWVRQAPGQGLEWMGWISAYNGNTNYAQKLQGRVTMTTDTSTNTAYMELRSLRSDDTAVYYCARDADYSSGSGYWGQGTLVTVSS
VL: SYELTQPPSVSVSPGQTARITCSGDALPKQYAYWYQQKPGQAPVMVIYKDTERPSGIPERFSGSSSGTKVTLTISGVQAEDEADYYCQSADNSITYRVFGGGTKVTVL
notes: not shown: scFv linker and domain order
B2: PD1-17 scFv (scFv, V domains shown)
VH: QVQLQESGPGVVKPSGTLSLTCAISGGSIGSGGSIRSTRWWSWVRQSPGKGLEWIGEIYHSGSTNYNPSLKSRVTISLDKSRNHFSLRLNSVTAADTAVYYCARQDYGDSGDWYFDLWGKGTMVTVSS
VL: NFMLTQPHSVSESPGKTVTISCTRSSGSIASNSVQWYQQRPGSSPTTVIYEDNQRPSGVPDRFSGSIDSSSNSASLTVSGLKTEDEADYYCQSSDSSAVVFGSGTKLTVL
notes: as for B1
B3: PD1-33 IgG (antibody, V domains shown)
VH: QVQLVQSGAEVKKPGASVRVSCKASGYTLTSYYIHWVRQAPGQGLEWMGIINPRGATISYAQKFQGRVTMTRDTSTSTVYMELRNLKSEDTALYYCATAGIYGFDFDYWGRGTLVTVSS
VL: QSALTQPASVSGSPGQSITISCTGTSNDVGGYNYVSWYQHHPGKAPKLIIYDVTNRPSGVSDRFSGSKSGNTASLTISGLLAEDEGDYYCSSYTIVTNFEVLFGGGTKLTV
B4: PD1-35 IgG (antibody, V domains shown)
VH: QVQLQESGPGLVKPSQTLSLTCTVSGGSISSGAYYWSWIRQHPGKGLEWIGYIYYNGNTYYNPSLRSLVTISVDASKNQFSLKLSSVTAADTAVYYCARASDYVWGGYRYMDAFDIWGRGTLITVSS
VL: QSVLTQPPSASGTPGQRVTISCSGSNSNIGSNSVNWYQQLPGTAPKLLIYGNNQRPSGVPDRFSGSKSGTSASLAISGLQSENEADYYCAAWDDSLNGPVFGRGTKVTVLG
notes: also called PD-35
B5: PD1-28 IgG (antibody, V domains shown)
VH: EVQLVQSGAEVKKPGASVKVSCKASGYRFTSYGISWVRQAPGQGLEWMGWISAYNGNTNYAQKLQGRVTMTTDTSTNTAYMELRSLRSDDTAVYYCARDADYSSGSGYWGQGTLVTVSS
VL: SYELTQPPSVSVSPGQTARITCSGDALPKQYAYWYQQKPGQAPVMVIYKDTERPSGIPERFSGSSSGTKVTLTISGVQAEDEADYYCQSADNSITYRVFGGGTKVTVL
B6: PD1-17 IgG (antibody, V domains shown)
VH: QVQLQESGPGVVKPSGTLSLTCAISGGSIGSGGSIRSTRWWSWVRQSPGKGLEWIGEIYHSGSTNYNPSLKSRVTISLDKSRNHFSLRLNSVTAADTAVYYCARQDYGDSGDWYFDLWGKGTMVTVSS
VL: NFMLTQPHSVSESPGKTVTISCTRSSGSIASNSVQWYQQRPGSSPTTVIYEDNQRPSGVPDRFSGSIDSSSNSASLTVSGLKTEDEADYYCQSSDSSAVVFGSGTKLTVL
notes: also called anti-PD-1 antibody PD1-17

In the first test the target is T1, human PD-1 fusion protein (human, UniProt Q15116 25-170).
T1 construct: also called Soluble PD-1 fusion protein; human PD-1/IgG chimera; not shown: fusion partner (IgG part of the chimera)
T1 sequence (Q15116 other isoform, or with tags, fused parts or gaps): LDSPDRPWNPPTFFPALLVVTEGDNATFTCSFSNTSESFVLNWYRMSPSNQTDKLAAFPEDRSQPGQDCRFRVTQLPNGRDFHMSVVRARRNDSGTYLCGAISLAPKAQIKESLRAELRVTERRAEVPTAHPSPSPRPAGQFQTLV
The experiment in a line: purified scFv titrated; inhibition of biotinylated human PD-L1 fusion binding to plate-bound human PD-1 fusion. The protocol:
ScFv production was induced by addition of 1 mM IPTG to exponentially growing cultures and incubation overnight at 30° C. Crude scFv-containing periplasmic extracts were obtained by subjecting the bacterial pellets from the overnight induction to osmotic shock. Pellets were resuspended in 20% (w/v) sucrose, 50 mM Tris-HCl, pH 7.5, 1 mM EDTA and cooled on ice for 30 minutes. Cellular debris was removed by centrifugation, and the scFv was purified by chromatography and buffer-exchanged into PBS. Purified scFv's (PD1-17, PD1-28, PD1-33, and PD1-35) were tested for the ability to inhibit the binding of biotinylated human PD-L1 fusion protein to human PD-1 fusion protein immobilized on plastic in a 96 well microtiter plate assay. Binding of biotinylated PD-L1 fusion protein was detected with AMDEX-alkaline phosphatase, and the signal generated was measured by reading the absorbance at 405 nm using a microtiter plate reader. Data was expressed as a percentage of the total binding and a titration of scFv concentrations was tested to establish clone potency as calculated IC₅₀ values.
On to B1, for which the IC50 is 560 nM. Still for that read-out and setting: in the case of B2 it was 726 nM.

In the next test the target is T1, human PD-1 fusion protein. The experiment in a line: IgG titrated; inhibition of biotinylated human PD-L1 fusion binding to plate-bound human PD-1 fusion.
Molecule B3 displayed an IC50 of 1.8 nM. Same read-out and setting: in the case of B4 it was 2.3 nM.

In the case of B5, the 50% inhibitory concentration (IC50) was determined as 1.4 nM. The molecule B6 came in with a 50% inhibitory concentration (IC50) of 2.5 nM.

The record behind these values is patent US20060210567A1 (AstraZeneca / MedImmune, published 2006).
